Experimental data: patent US5851983A, “Elastase inhibitory polypeptide and process for production thereof by recombinant gene technology” (Teijin Limited, priority 1987, dated 1998)

How the values were obtained:
Calf pancreatic trypsin = biological target: T1, Calf pancreatic trypsin (Bos taurus, UniProt P00760); test: Serine protease inhibitory assay, Example 12: trypsin; format: biochemical; settings: read-out: concentration of inhibitory protein which exhibits a 50% inhibition; enzyme 10^-7 M; Bz-Arg-pNA 1.0 mM; 37° C.
T1 construct: (2) Calf pancreatic trypsin (Sigma); purchased Sigma; host or cells: calf pancreas
T1 sequence (P00760 24-246): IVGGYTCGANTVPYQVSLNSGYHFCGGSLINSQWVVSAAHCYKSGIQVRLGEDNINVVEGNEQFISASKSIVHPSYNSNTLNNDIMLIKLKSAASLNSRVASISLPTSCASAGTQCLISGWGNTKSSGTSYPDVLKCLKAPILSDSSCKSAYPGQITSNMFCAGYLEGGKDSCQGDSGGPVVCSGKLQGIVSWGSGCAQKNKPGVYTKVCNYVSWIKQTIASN
Protocol: Assay of serine protease inhibitory activity of active-type (Asn^55 -Ala^107) SLPI fragment polypeptide
The active-type (Asn^55 -Ala^107) SLPI fragment polypeptide obtained by refolding by the procedure shown in Example 11 as measured to determine its inhibitory activity to various serine proteases. The assay result thereof is shown as follows.
Enzyme solution: The following enzymes were dissolved in the above-mentioned buffer solutions at a concentration ten-times higher than the concentration shown in Table 4.
(2) Calf pancreatic trypsin (Sigma)
Substrate solution: For the above-mentioned enzymes (1) to (7), the following substrates (1) to (7), respectively, were dissolved in dimethyl sulfoxyde to a concentration of 10 mM to prepare stock solutions, which were then dissolved in the above-mentioned buffer solution to concentration ten-times higher than final concentrations, to prepare substrate solutions. […]
(§1) To each well of a 96-well ELISA microplate were added 140 μl of the above-mentioned buffer, 20 μl of a test solution, and 20 μl of the enzyme solution, and the mixture was stirred at 37° C. for 30 minutes. Next, 20 μl of the substrate solution was added to the well, the mixture was stirred at 37° C. for one hour to develop same, and the absorbance at 405 nm was measured.
Moreover, an inhibitory constant Ki of the present (Asn^55 -Ala^107) SLPI was calculated on the basis of the above data by a method of Dixon, M. and Webb, E. C. (1979), Enzyme, Longman or a method of Henderson, P. J. F. (1972) Biochem. J., 127, 321-333.

[1] = biological target: T2, polymorphonuclear leukocyte elastase from human sputum (Homo sapiens, UniProt P08246); test: Serine protease inhibitory assay, Example 12: human elastase; format: biochemical; settings: read-out: concentration of inhibitory protein which exhibits a 50% inhibition; enzyme 10^-9 M; MeO-Suc-Ala-Ala-Pro-Val-pNA 0.3 mM; 37° C.
T2 construct: Polymorphonuclear leukocyte elastase from human sputum (EPC Co; Funakoshi Yakuhin); purchased EPC Co. (via Funakoshi Yakuhin); host or cells: human sputum
T2 sequence (P08246 30-267): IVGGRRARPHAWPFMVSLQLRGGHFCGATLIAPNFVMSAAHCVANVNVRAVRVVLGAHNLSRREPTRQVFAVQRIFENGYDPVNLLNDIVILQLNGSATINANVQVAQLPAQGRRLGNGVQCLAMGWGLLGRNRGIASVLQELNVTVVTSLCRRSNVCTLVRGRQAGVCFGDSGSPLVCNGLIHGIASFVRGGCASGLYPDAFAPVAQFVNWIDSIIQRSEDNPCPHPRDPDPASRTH
Protocol: as §1

[2] = biological target: T2, polymorphonuclear leukocyte elastase from human sputum; test: Thermal stability (Example 14); format: physicochemical; settings: 50 mM Tris-HCl (pH 7.8), 50° C. for 2 hours
Protocol: After a solution of an active-type (Asn^55 -Ala^107) SLPI fragment polypeptide in 50 mM Tris-HCl (pH 7.8) was treated at 50° C. for 2 hours, the inhibitory activity on polymorphonuclear leukocyte elastase from human sputum was measured.

[3] = biological target: T3, polymorphonuclear leucocyte elastase from human sputum (Homo sapiens, UniProt P08246); test: Simultaneous treatment with healthy human saliva and elastase (Examples 28, 29); format: in vitro ADME; settings: 37° C.
T3 construct: Polymorphonuclear leukocyte elastase from human sputum (EPC Co; Funakoshi Yakuhin); purchased EPC Co. (via Funakoshi Yakuhin); host or cells: human sputum
T3 sequence (P08246 30-267): T2 sequence (P08246 30-267)
Protocol: (1) Healthy human saliva was ultra-filtered through a 0.22 μm filter (Millex GS, Millipore), and to the filtered saliva were added SLPI and polymorphonuclear leucocyte elastase from human sputum (EPC, Funakoshi Yakuhin) to a final concentration of 50 μM respectively. The mixture was incubated at 37° C., samples were taken as time elapsed, and analyzed by SDS-PAGE as described in Example 27.
(2) Next, the band J was transferred to a membrane as described in Example 27, and N-terminal amino acid sequence was analyzed.
(1) According to the same procedure as described in Example 28, to healthy human saliva were dissolved SLPI and polymorphonuclear leucocyte elastase from human sputum to final concentrations of 50 μM and 100 μM respectively, and the mixture was incubated at 37° C. Samples were taken as time elapsed, and analyzed by SDS-PAGE.
(2) Next, N-terminal amino acid sequence of the band M was analyzed as described in Example 27.

Substance: (Asn^55 -Ala^107) SLPI: polypeptide having an amino acid sequence starting with the 55th Asn and ending at the 107th Ala of SLPI (NPTRRKPGKCPVTYGQCLMLNPPNFCEMDGQCKRDLKCCMGMCGKSCVSPVKA)
- IC50 (Calf pancreatic trypsin): 130 nM
- IC50 [1]: 1 nM
- elastase inhibitory activity after heat treatment (thermal stability) [2]: maintained at the same level
- SDS-PAGE bands on simultaneous treatment with healthy human saliva and elastase ([3]; 50 μM polypeptide, elastase 50 μM (Example 28) or 100 μM (Example 29)): after 48 hours, almost only band M was observed
- cleavage site on simultaneous treatment with healthy human saliva and elastase ([3]; N-terminal sequencing of SDS-PAGE band): cleaved at the site between Thr^57 -Arg^58
